# B1: mAb G196 [mouse] / biotin-SGSGSDLVPRG [modified: biotin on the N-terminus; biotin on the N-terminus] (parent complex)
# chain 1: QVKLQESGAELVKPGASVKLSCKASGYTFTNYWMHWVKLRPGQGFEWIGEINPSNGGSNYNEKFKRKATLTVDKSSSTAYMQLSSLTSEDSAVFYCSIWDSYFDYWGQGTTLTVSSAKTTPPSVYPLAPGSAAQTNSMVTLGCLVKGYFPEPVTVTWNSGSLSSGVHTFPAVLQSDLYTLSSSVTVPSSPWPSETVTCNVAHPASSTKVDKKIVPRDC
# chain 2: NIVMTQSPKSMSMSVGERVTLTCKASENVVTYVSWYQQKPEQSPKLLIYGASNRYTGVPDRFTGSGSATDFTLTISSVQAEDLADYHCGQGYSYPYTFGGGTKLEIKRADAAPTVSIFPPSSEQLTSGGASVVCFLNNFYPKDINVKWKIDGSERQNGVLNSWTDQDSKDSTYSMSSTLTLTKDEYERHNSYTCEATHKTSTSPIVKSFNRNEC
# chain 3: SGSGSDLVPRG
# Variants of: B1
# Test: permutation ELISA (densitometry of spots); parent: 1; read off a plot
row,Variant,ratio to parent
1,chain 3 D6K,~0.05
2,chain 3 L7R,~0.13
3,chain 3 L7H,~0.62
4,chain 3 L7K,~0.1
5,chain 3 V8M,~0.09
6,chain 3 D6T,~0.19
7,chain 3 D6R,~0.07
8,chain 3 P9M,~0.82
9,chain 3 D6W,~0.12
10,chain 3 V8I,~0.96
11,chain 3 V8N,~0.11
12,chain 3 P9Y,~0.89
13,chain 3 L7I,~0.99
14,chain 3 P9V,~0.87
15,chain 3 V8D,~0.03
16,chain 3 P9N,~0.76
17,chain 3 V8E,~0.07
18,chain 3 L7C,~0.06
19,chain 3 D6G,~0.7
20,chain 3 P9E,~0.86
21,chain 3 L7G,~0.04
22,chain 3 L7S,~0.06
23,chain 3 D6S,~0.95
24,chain 3 P9I,~0.85
25,chain 3 D6V,~0.04
26,chain 3 V8C,~0.08

row,Variant,ratio to parent
1,chain 3 P9A,~0.98
2,chain 3 V8S,~0.44
3,chain 3 D6C,~0.26
4,chain 3 D6L,~0.06
5,chain 3 D6F,~0.09
6,chain 3 R10H,~0.38
7,chain 3 V8Y,~0.05
8,chain 3 D6I,~0.08
9,chain 3 L7F,~0.72
10,chain 3 L7E,~0.08
11,chain 3 V8R,~0.07
12,chain 3 P9C,~0.78
13,chain 3 D6M,~0.11
14,chain 3 P9K,~0.4
15,chain 3 V8A,~0.82
16,chain 3 V8K,~0.05
17,chain 3 V8H,~0.08
18,chain 3 P9L,~0.72
19,chain 3 P9T,~0.59
20,chain 3 L7Q,~0.07
21,chain 3 L7T,~0.11
22,chain 3 D6H,~0.15
23,chain 3 P9R,~0.74
24,chain 3 D6N,~0.25
25,chain 3 L7M,~0.84
26,chain 3 P9G,~0.67

row,Variant,ratio to parent
1,chain 3 D6E,~1
2,chain 3 P9Q,~0.72
3,chain 3 V8W,~0.03
4,chain 3 V8T,~0.95
5,chain 3 L7W,~0.05
6,chain 3 L7N,~0.6
7,chain 3 V8L,~0.13
8,chain 3 V8Q,~0.16
9,chain 3 D6Q,~0.48
10,chain 3 L7P,~0.02
11,chain 3 V8P,~0.04
12,chain 3 D6A,~0.38
13,chain 3 P9H,~0.74
14,chain 3 L7A,~0.08
15,chain 3 P9S,~0.81
16,chain 3 V8G,~0.03
17,chain 3 V8F,~0.04
18,chain 3 P9W,~0.82
19,chain 3 L7V,~0.11
20,chain 3 D6P,~0.16
21,chain 3 L7Y,~0.15
22,chain 3 L7D,~0.11
23,chain 3 P9F,~0.86
24,chain 3 D6Y,~0.11
25,chain 3 P9D,~0.78

# — publication PMC5339894, “G196 epitope tag system: a novel monoclonal antibody, G196, recognizes the small, soluble peptide DLVPR with high affinity” (Scientific Reports, 2017)
